Test results published in patent US7022488.

Tests used:
Gs = assay: cell-based or functional assay
Gi proteins = assay: cell-based or functional assay

| Substance | increase in cAMP levels after pertussis toxin treatment (Gs) | increase of the isoproterenol cAMP response after pertussis toxin treatment (Gi proteins) |
| --- | --- | --- |
| human umami taste receptor hT1R1/hT1R3 (from UniProt Q7RTX1 21-841; Q7RTX0 21-852) | 25% | – |
| β-adrenergic receptor (β2AR) (from UniProt P07550 1-413) | – | > 17 fold |
